Experimental data: US20200377596A1 (AMPHIVENA THERAPEUTICS, published 2020)

Molecular target: CD33 (UniProt P20138 18-364, limits assumed)
Assay: cell-based or functional assay

CD33, sequence (P20138 18-364 limits assumed): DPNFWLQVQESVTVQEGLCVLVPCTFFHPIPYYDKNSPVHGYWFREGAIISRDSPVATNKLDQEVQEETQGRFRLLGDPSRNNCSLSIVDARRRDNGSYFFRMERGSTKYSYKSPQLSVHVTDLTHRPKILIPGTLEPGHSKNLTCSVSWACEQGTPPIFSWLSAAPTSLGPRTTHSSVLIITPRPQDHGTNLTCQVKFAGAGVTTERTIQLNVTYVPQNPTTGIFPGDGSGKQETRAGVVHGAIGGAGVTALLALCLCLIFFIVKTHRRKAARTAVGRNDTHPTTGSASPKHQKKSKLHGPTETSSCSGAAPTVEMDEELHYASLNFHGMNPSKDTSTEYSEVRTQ

proliferation of CD4+ and CD8+ T cells: > 2 fold
B1: AMV564 (bispecific antibody)
chain: DIQMTQSPSSLSASVGDRVTITCRSSTGAVTTSNYANWVQQKPGKAPKALIGGTNKRAPGVPSRFSGSLIGDKATLTISSLQPEDFATYYCALWYSNLWVFGQGTKVEIKGGSGGSQVQLVQSGAEVKKPGASVKVSCKASGYTFTSYDINWVRQAPGQGLEWMGWMNPNSGNTGFAQKFQGRVTMTRDTSTSTVYMELSSLRSEDTAVYYCARDRANTDYSLGMDVWGQGTLVTVSSGGSGQSVLTQPPSASGTPGQRVTISCSGSRSNIGSNTVNWYQQLPGTAPKLLIYGNNQRPSGVPDRFSGSKSGTSASLAISGLQSEDEADYYCATWDDSLIGWVFGGGTKLTVLGGSGGSEVQLVESGGGLVQPGGSLRLSCAASGFTFSTYAMNWVRQAPGKGLEWVGRIRSKYNNYATYYADSVKDRFTISRDDSKNSLYLQMNSLKTEDTAVYYCARHGNFGNSYVSYFAYWGQGTLVTVSS
